From patent publication US20240124575A1 (SIMCERE ZAIMING PHARMACEUTICAL, published 2024)
Where two headings read alike, the source gives them in different places.

How the values were obtained:
[1] = molecular target: T1, monkey CD33 protein (monkey); assay: ELISA, coated monkey CD33, antibody 1 nM
T1 construct: The printed catalogue numbers for murine and monkey CD33 may be interchanged; also called monkey CD33-His protein

[2] = molecular target: T2, human CD33-His (human, UniProt P20138 18-259); assay: SPR (Biacore), antibody captured on Protein A chip, human CD33-his as analyte
T2 construct: range 18-259; Bought protein; also called human CD33-his protein; hCD33-his; not shown: His tag
T2 sequence (P20138 18-259 limits assumed): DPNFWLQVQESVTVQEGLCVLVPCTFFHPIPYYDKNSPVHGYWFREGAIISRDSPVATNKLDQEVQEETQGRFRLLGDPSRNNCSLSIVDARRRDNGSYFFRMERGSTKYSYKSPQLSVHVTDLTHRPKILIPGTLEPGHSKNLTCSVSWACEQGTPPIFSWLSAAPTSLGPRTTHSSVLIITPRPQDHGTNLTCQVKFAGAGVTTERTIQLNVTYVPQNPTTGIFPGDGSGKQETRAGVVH
Protocol: (§1) The sample and running buffer was HBS-EP+ (10 mM HEPES, 150 mM NaCl, 3 mM EDTA, 0.05% surfactant P20) (GE Healthcare; BR-1006-69). The flow cell was set at 25° C. The sample block was set at 16° C. Both were pretreated with the running buffer. In each cycle, first, the antibody to be tested was captured using the Protein A chip, and then a single concentration of CD33 antigen protein was injected. The association and dissociation processes of the antibody with the antigen protein were recorded, and finally, the chip was regenerated using Glycine pH 1.5 (GE Healthcare; BR-1003-54). The association was determined by injecting different concentrations of recombinant human CD33-his in the solution and maintaining for 240 s, wherein the flow rate was 30 μL/min, and the protein was diluted in a 1:1 dilution ratio from 200 nM to obtain 5 concentrations in total. The dissociation phase was monitored for up to 600 s and triggered by switching from the sample solution to the running buffer. The surface was regenerated by washing with 10 mM glycine solution (pH 1.5) at a flow rate of 30 μL/min for 30 s. The difference in bulk refractive index was corrected by subtracting the responses obtained from the […]. Blank injections were also subtracted (=double reference). To calculate the apparent KD and other kinetic parameters, the Langmuir 1:1 model was used.

[3] = molecular target: T3, monkey CD33 on HEK293T-monkey CD33 cells (monkey); assay: FACS on HEK293T-monkey CD33 cells
T3 construct: whole, on cells

[4] = molecular target: T1, monkey CD33 protein; assay: ELISA, coated monkey CD33, antibody 0.0001 nM
[5] = molecular target: T1, monkey CD33 protein; assay: ELISA, coated monkey CD33, antibody 100 nM
[6] = molecular target: T1, monkey CD33 protein; assay: SPR (Biacore), antibody captured on Protein A chip, monkey CD33 protein as analyte
Protocol: as §1
(§2) The assay on affinity of VHH-Fc antibodies for monkey CD33 protein (Sino Biological, Cat. No. 50712-M08H) was performed according to the method in Example 7.1.

[7] = molecular target: T1, monkey CD33 protein; assay: ELISA, coated monkey CD33, antibody 100 nM; remark: listed apart in the source
[8] = molecular target: T1, monkey CD33 protein; assay: ELISA, coated monkey CD33, antibody 0.001 nM
[9] = molecular target: T1, monkey CD33 protein; assay: ELISA, coated monkey CD33, antibody 1 nM; remark: listed apart in the source
[10] = molecular target: T2, human CD33-His; assay: SPR (Biacore), antibody captured on Protein A chip, human CD33-his as analyte; remark: listed apart in the source
Protocol: as §1

[11] = molecular target: T1, monkey CD33 protein; assay: SPR (Biacore), antibody captured on Protein A chip, monkey CD33 protein as analyte; remark: listed apart in the source
Protocol: as §1, §2

[12] = molecular target: T1, monkey CD33 protein; assay: ELISA, coated monkey CD33, antibody 10 nM
[13] = molecular target: T1, monkey CD33 protein; assay: ELISA, coated monkey CD33, antibody 10 nM; remark: listed apart in the source
[14] = molecular target: T3, monkey CD33 on HEK293T-monkey CD33 cells; assay: FACS on HEK293T-monkey CD33 cells; remark: listed apart in the source
[15] = molecular target: T1, monkey CD33 protein; assay: ELISA, coated monkey CD33, antibody 0.01 nM
[16] = molecular target: T1, monkey CD33 protein; assay: ELISA, coated monkey CD33, antibody 0.1 nM
[17] = molecular target: T1, monkey CD33 protein; assay: ELISA, coated monkey CD33, antibody 0.001 nM; remark: listed apart in the source
[18] = molecular target: T1, monkey CD33 protein; assay: ELISA, coated monkey CD33, antibody 0.1 nM; remark: listed apart in the source
[19] = molecular target: T1, monkey CD33 protein; assay: ELISA, coated monkey CD33, antibody 0.0001 nM; remark: listed apart in the source
[20] = molecular target: T1, monkey CD33 protein; assay: ELISA, coated monkey CD33, antibody 0.01 nM; remark: listed apart in the source

OD450 [1]: 2.52 OD450
Kd [2]: 0.155 nM
koff [2]: 7.44e-05 s⁻¹
kon [2]: 479000 M⁻¹ s⁻¹
EC50 [3]: 4.8 nM
Max MFI [3]: 7880 MFI
OD450 [4]: 0.04 OD450
OD450 [5]: 3.4 OD450
Kd [6]: 0.492 nM
koff [6]: 0.000632 s⁻¹
kon [6]: 1.29e+06 M⁻¹ s⁻¹
OD450 [7]: 3.06 OD450
OD450 [8]: 0.06 OD450
OD450 [9]: 2.73 OD450
Kd [10]: 0.157 nM
koff [10]: 4.08e-05 s⁻¹
kon [10]: 260000 M⁻¹ s⁻¹
Kd [11]: 0.494 nM
koff [11]: 0.000497 s⁻¹
kon [11]: 1.01e+06 M⁻¹ s⁻¹
OD450 [12]: 3.23 OD450
OD450 [13]: 3.09 OD450
EC50 [14]: 5.7 nM
Max MFI [14]: 3590 MFI
OD450 [15]: 0.29 OD450
OD450 [16]: 1.15 OD450
OD450 [17]: 0.07 OD450
OD450 [18]: 0.99 OD450
OD450 [19]: 0.06 OD450
OD450 [20]: 0.15 OD450
B1: C33B904 (antibody, human IgG1, kappa, V domains shown)
VH: EVQLVESGGGLVQPGRSLRLSCAASGFTFDDYAMHWVRQAPGKGLEWVSGIGWSGGSIVYADSVKGRFTISRDNAKNSLYLQMNSLRAEDTALYYCAKDSPYGDFFDYWGQGTLVTVSS
VL: DIVMTQSPDSLAVSLGERATINCKSSQTVFYSSNNKNYLAWYQQKPGQPPKLLISWASTRKSGVPDRFSGSGSGTDFTLTVSSLQAEDVAVYYCQHYYSTPYTFGQGTKLEIKR
notes: Control antibody, intact human IgG1; variable regions from US20190382481A1; also called C33B904 hIgG1; C331B904
